The RNAGym collection of RNA variant scans (doi:10.7554/elife.80360)

B1: Hammerhead Ribozyme (parent)
chain: ACCGGAUGUGCUUUCCGGUCUGAUGAGUCCGUGAGGACGAAACAG

Variants of: B1
Assay: self-cleavage, relative activity (ratio to wild type); higher = more cleavage; co-transcriptional

Row | Variant | self-cleavage
1 | ACCGGAUGUGCUUUCCGGUCUGAUGAGACCGUGAGGGCGAAACAG [U28A A37G] | 0.325
2 | ACCGGAUGUGCUUUCCGGUCUGAUGAGACCGUGAGGCCGAAACAG [U28A A37C] | 0.398
3 | ACCGGAUGUGCUUUCCGGUCUGAUGAGACCGUGAGGUCGAAACAG [U28A A37U] | 0.895
4 | ACCGGAUGUGCUUUCCGGUCUGAUGAUUCCGUGAUGACGAAACAG [G27U G35U] | 0.345
5 | ACCGGAUGUGCUUUCCGGUCUGAUGAUUCCGUGACGACGAAACAG [G27U G35C] | 0.407
6 | ACCGGAUGUGCUUUCCGGUCUGAUGAUUCCGUGAAGACGAAACAG [G27U G35A] | 0.334
7 | ACCGGAUGUGCUUUCCGGUCUGAUGAGACCGUGAGGACGAACCAG [U28A A42C] | 0.335
8 | ACCGGAUGUGCUUUCCGGUCUGAUGAGACCGUGAGGACGAAUCAG [U28A A42U] | 0.341
9 | ACCGGAUGUGCUUUCCGGUCUGAUGAGACCGUGAGGACGAAGCAG [U28A A42G] | 0.25
10 | ACCGGAUGUGCUUUCCGGUCUGAUGAUUCGGUGAGGACGAAACAG [G27U C30G] | 0.297
11 | ACCGGAUGUGCUUUCCGGUCUGAUGAUUCAGUGAGGACGAAACAG [G27U C30A] | 0.317
12 | ACCGGAUGUGCUUUCCGGUCUGAUGAUUCUGUGAGGACGAAACAG [G27U C30U] | 0.456
13 | ACCGGAUGUGCUUUCCGGUCUGAUGAGACCUUGAGGACGAAACAG [U28A G31U] | 0.92
14 | ACCGGAUGUGCUUUCCGGUCUGAUGAGACCAUGAGGACGAAACAG [U28A G31A] | 0.856
15 | ACCGGAUGUGCUUUCCGGUCUGAUGAGACCCUGAGGACGAAACAG [U28A G31C] | 0.919
16 | ACCGGAUGUGCUUUCCGGUCUGAUGACUCCGCGAGGACGAAACAG [G27C U32C] | 1.01
17 | ACCGGAUGUGCUUUCCGGUCUGAUGACUCCGGGAGGACGAAACAG [G27C U32G] | 0.705
18 | ACCGGAUGUGCUUUCCGGUCUGAUGACUCCGAGAGGACGAAACAG [G27C U32A] | 0.716
19 | ACCGGAUGUGCUUUCCGGUCUGAUGAGACCGUGAGGACGAAAAAG [U28A C43A] | 0.292

Row | Variant | self-cleavage
20 | ACCGGAUGUGCUUUCCGGUCUGAUGAGACCGUGAGGACGAAAGAG [U28A C43G] | 0.336
21 | ACCGGAUGUGCUUUCCGGUCUGAUGAGACCGUGAGGACGAAAUAG [U28A C43U] | 0.381
22 | ACCGGAUGUGCUUUCCGGUCUGAUGAUUCCGUGAGGACGAAACCG [G27U A44C] | 0.305
23 | ACCGGAUGUGCUUUCCGGUCUGAUGAUUCCGUGAGGACGAAACGG [G27U A44G] | 0.69
24 | ACCGGAUGUGCUUUCCGGUCUGAUGAUUCCGUGAGGACGAAACUG [G27U A44U] | 0.349
25 | ACCGGAUGUGCUUUCCGGUCUGAUGAUUCCGUGAGGACGAAACAU [G27U G45U] | 0.488
26 | ACCGGAUGUGCUUUCCGGUCUGAUGAUUCCGUGAGGACGAAACAA [G27U G45A] | 0.363
27 | ACCGGAUGUGCUUUCCGGUCUGAUGAUUCCGUGAGGACGAAACAC [G27U G45C] | 0.365
28 | ACCGGAUGUGCUUUCCGGUCUGAUGAUUCCGUGAGGACGAAACAG [G27U] | 0.561
29 | ACCGGAUGUGCUUUCCGGUCUGAUGAGACCGUGCGGACGAAACAG [U28A A34C] | 0.623
30 | ACCGGAUGUGCUUUCCGGUCUGAUGAGACCGUGUGGACGAAACAG [U28A A34U] | 0.678
31 | ACCGGAUGUGCUUUCCGGUCUGAUGAGACCGUGGGGACGAAACAG [U28A A34G] | 0.516
32 | ACCGGAUGUGCUUUCCGGUCUGAUGAGACCGUGAGGACCAAACAG [U28A G39C] | 0.382
33 | ACCGGAUGUGCUUUCCGGUCUGAUGAGACCGUGAGGACAAAACAG [U28A G39A] | 0.422
34 | ACCGGAUGUGCUUUCCGGUCUGAUGAGACCGUGAGGACUAAACAG [U28A G39U] | 0.301
35 | ACCGGAUGUGCUUUCCGGUCUGAUGAUUCCGUGAGGACGGAACAG [G27U A40G] | 0.298
36 | ACCGGAUGUGCUUUCCGGUCUGAUGAUUCCGUGAGGACGUAACAG [G27U A40U] | 0.402
37 | ACCGGAUGUGCUUUCCGGUCUGAUGAUUCCGUGAGGACGCAACAG [G27U A40C] | 0.363
38 | ACCGGAUGUGCUUUCCGGUCUGAUGAGACCGUGAGUACGAAACAG [U28A G36U] | 0.438

Row | Variant | self-cleavage
39 | ACCGGAUGUGCUUUCCGGUCUGAUGAGACCGUGAGCACGAAACAG [U28A G36C] | 0.396
40 | ACCGGAUGUGCUUUCCGGUCUGAUGAGACCGUGAGAACGAAACAG [U28A G36A] | 0.339
41 | ACCGGAUGUGCUUUCCGGUCUGAUGAUUCCGUGAGGACAAAACAG [G27U G39A] | 0.341
42 | ACCGGAUGUGCUUUCCGGUCUGAUGAUUCCGUGAGGACCAAACAG [G27U G39C] | 0.314
43 | ACCGGAUGUGCUUUCCGGUCUGAUGAUUCCGUGAGGACUAAACAG [G27U G39U] | 0.297
44 | ACCGGAUGUGCUUUCCGGUCUGAUGAUUCCGUGAGGAAGAAACAG [G27U C38A] | 0.785
45 | ACCGGAUGUGCUUUCCGGUCUGAUGAUUCCGUGAGGAUGAAACAG [G27U C38U] | 0.683
46 | ACCGGAUGUGCUUUCCGGUCUGAUGAUUCCGUGAGGAGGAAACAG [G27U C38G] | 0.597
47 | ACCGGAUGUGCUUUCCGGUCUGAUGAUUCCGUGAGCACGAAACAG [G27U G36C] | 0.304
48 | ACCGGAUGUGCUUUCCGGUCUGAUGAUUCCGUGAGUACGAAACAG [G27U G36U] | 0.328
49 | ACCGGAUGUGCUUUCCGGUCUGAUGAUUCCGUGAGAACGAAACAG [G27U G36A] | 0.303
50 | ACCGGAUGUGCUUUCCGGUCUGAUGAGACCGUGACGACGAAACAG [U28A G35C] | 0.435
51 | ACCGGAUGUGCUUUCCGGUCUGAUGAGACCGUGAAGACGAAACAG [U28A G35A] | 0.405
52 | ACCGGAUGUGCUUUCCGGUCUGAUGAGACCGUGAUGACGAAACAG [U28A G35U] | 0.489
53 | ACCGGAUGUGCUUUCCGGUCUGAUGAGACCGUAAGGACGAAACAG [U28A G33A] | 0.829
54 | ACCGGAUGUGCUUUCCGGUCUGAUGAGACCGUUAGGACGAAACAG [U28A G33U] | 0.884
55 | ACCGGAUGUGCUUUCCGGUCUGAUGAGACCGUCAGGACGAAACAG [U28A G33C] | 1.15
56 | ACCGGAUGUGCUUUCCGGUCUGAUGAGAUCGUGAGGACGAAACAG [U28A C29U] | 0.774
57 | ACCGGAUGUGCUUUCCGGUCUGAUGAGAGCGUGAGGACGAAACAG [U28A C29G] | 0.445
